Results on 11 substances are retold here after PMC12990809.

What all share (experiment): pulldown
One series addresses T1, RBM28 (Homo sapiens) (UniProt Q9NW13).
T1 sequence: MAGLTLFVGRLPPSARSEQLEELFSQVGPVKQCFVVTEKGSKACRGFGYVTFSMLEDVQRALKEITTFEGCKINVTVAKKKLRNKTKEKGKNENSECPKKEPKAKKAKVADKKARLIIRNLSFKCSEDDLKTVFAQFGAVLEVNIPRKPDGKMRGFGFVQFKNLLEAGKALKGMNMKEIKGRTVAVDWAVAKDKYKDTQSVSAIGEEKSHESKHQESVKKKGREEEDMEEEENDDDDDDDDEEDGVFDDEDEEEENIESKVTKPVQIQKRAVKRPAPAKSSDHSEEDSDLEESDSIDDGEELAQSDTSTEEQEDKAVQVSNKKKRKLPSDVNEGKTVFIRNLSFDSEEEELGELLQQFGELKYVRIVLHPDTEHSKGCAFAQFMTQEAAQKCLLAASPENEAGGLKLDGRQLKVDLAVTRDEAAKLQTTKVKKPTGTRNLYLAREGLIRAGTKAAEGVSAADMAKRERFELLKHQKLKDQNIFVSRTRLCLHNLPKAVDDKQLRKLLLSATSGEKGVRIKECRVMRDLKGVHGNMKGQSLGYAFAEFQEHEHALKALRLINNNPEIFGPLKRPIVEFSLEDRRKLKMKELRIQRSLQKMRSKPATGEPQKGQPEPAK
The following applies: 20 nM protein, 1.5 uM RNA pool; 20 mM HEPES pH 7.8, 70 mM KCl, 10 mM NaCl, 10% glycerol, 2 mM DTT, 0.1 ug/uL BSA; 30 min, 4 C (protocol of this paper; not …); cited from earlier work.

The target in series [1] is T2, RBM24 (Tetraodon nigroviridis) (UniProt H3DM38).
T2 sequence: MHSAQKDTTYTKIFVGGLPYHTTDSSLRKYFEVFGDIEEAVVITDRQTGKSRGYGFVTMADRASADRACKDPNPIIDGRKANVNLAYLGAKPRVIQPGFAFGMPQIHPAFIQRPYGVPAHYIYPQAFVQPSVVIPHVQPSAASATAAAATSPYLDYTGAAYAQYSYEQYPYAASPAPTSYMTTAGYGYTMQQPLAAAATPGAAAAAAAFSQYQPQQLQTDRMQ
The following applies: 20 nM protein, 1.5 uM RNA pool; 20 mM HEPES pH 7.8, 70 mM KCl, 10 mM NaCl, 10% glycerol, 2 mM DTT, 0.1 ug/uL BSA; 30 min, 4 C.

For series [2], the target named is T3, msi (Drosophila melanogaster) (UniProt H9ZJL0).
T3 sequence: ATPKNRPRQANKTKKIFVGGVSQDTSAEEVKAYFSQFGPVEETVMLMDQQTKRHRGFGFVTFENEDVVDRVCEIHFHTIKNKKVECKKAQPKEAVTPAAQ
The note with it: 20 nM protein, 1.5 uM RNA pool; 20 mM HEPES pH 7.8, 70 mM KCl, 10 mM NaCl, 10% glycerol, 2 mM DTT, 0.1 ug/uL BSA; 30 min, 4 C (protocol of this paper; not …); cited from earlier work.

The target of series [3] is T4, mex-5 (Caenorhabditis elegans) (UniProt Q9XUB2).
T4 sequence: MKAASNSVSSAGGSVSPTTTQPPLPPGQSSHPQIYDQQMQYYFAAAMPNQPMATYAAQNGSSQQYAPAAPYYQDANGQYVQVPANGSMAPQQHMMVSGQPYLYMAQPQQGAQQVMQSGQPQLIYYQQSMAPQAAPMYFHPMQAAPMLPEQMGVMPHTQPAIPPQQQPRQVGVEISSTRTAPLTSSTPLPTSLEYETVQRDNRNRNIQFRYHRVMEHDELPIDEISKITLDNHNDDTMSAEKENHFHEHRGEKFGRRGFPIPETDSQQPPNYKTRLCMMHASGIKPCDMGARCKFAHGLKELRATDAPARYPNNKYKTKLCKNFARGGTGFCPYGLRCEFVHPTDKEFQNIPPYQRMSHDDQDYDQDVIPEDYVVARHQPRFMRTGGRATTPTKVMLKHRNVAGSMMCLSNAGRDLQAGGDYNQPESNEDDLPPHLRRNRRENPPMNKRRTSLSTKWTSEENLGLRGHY
The following applies: 20 nM protein, 1.5 uM RNA pool; 20 mM HEPES pH 7.8, 70 mM KCl, 10 mM NaCl, 10% glycerol, 2 mM DTT, 0.1 ug/uL BSA; 30 min, 4 C (protocol of this paper; not …); cited from earlier work.

In a further series the target is MSI1 (Homo sapiens) (UniProt O43347). The following applies: 20 nM protein, 1.5 uM RNA pool; 20 mM HEPES pH 7.8, 70 mM KCl, 10 mM NaCl, 10% glycerol, 2 mM DTT, 0.1 ug/uL BSA; 30 min, 4 C (protocol of this paper; not …); cited from earlier work.
Chain of MSI1 (Homo sapiens) (O43347 1-230): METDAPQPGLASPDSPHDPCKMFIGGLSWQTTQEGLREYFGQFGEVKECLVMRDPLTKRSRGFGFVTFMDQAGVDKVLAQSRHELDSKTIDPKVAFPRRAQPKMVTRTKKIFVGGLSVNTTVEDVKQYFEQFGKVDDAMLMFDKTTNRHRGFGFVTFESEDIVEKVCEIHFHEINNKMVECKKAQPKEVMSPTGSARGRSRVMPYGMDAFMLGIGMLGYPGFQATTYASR
Series [4] concerns the target T5, pum (Drosophila melanogaster) (UniProt P25822).
T5 sequence: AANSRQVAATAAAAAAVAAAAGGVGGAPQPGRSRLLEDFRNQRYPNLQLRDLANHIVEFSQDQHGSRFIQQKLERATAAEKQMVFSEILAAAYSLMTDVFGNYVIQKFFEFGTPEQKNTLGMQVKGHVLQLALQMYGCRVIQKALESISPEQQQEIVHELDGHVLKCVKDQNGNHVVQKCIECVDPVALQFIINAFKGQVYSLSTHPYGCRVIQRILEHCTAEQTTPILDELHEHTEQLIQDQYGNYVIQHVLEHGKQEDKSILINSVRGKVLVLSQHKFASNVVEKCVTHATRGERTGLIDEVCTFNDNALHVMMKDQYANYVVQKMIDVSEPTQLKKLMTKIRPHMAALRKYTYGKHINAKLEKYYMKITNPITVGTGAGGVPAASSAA
The following applies: 20 nM protein, 1.5 uM RNA pool; 20 mM HEPES pH 7.8, 70 mM KCl, 10 mM NaCl, 10% glycerol, 2 mM DTT, 0.1 ug/uL BSA; 30 min, 4 C (protocol of this paper; not …); cited from earlier work.

The target of a further series is CELF4 (Homo sapiens) (UniProt Q9BZC1). The following applies: 20 nM protein, 1.5 uM RNA pool; 20 mM HEPES pH 7.8, 70 mM KCl, 10 mM NaCl, 10% glycerol, 2 mM DTT, 0.1 ug/uL BSA; 30 min, 4 C (protocol of this paper; not …); cited from earlier work.
Chain of CELF4 (Homo sapiens) (Q9BZC1 6-486): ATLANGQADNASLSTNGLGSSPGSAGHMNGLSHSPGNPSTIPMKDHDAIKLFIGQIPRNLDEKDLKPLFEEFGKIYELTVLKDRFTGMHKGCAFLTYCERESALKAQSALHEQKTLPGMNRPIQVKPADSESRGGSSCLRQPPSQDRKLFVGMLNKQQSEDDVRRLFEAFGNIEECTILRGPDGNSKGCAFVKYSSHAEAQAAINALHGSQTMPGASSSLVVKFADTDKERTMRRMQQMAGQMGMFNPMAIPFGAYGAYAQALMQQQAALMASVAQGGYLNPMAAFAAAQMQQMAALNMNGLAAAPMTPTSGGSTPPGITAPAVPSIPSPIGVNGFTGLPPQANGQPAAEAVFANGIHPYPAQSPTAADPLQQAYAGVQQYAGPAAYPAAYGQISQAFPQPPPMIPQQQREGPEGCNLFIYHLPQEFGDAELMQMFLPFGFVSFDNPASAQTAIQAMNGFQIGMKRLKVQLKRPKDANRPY
The target of a further series is T6, Rbm38 (Mus musculus) (UniProt Q62176).
T6 sequence: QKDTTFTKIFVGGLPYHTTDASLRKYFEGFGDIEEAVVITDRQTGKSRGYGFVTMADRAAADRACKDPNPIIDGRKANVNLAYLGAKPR
The note with it: 20 nM protein, 1.5 uM RNA pool; 20 mM HEPES pH 7.8, 70 mM KCl, 10 mM NaCl, 10% glycerol, 2 mM DTT, 0.1 ug/uL BSA; 30 min, 4 C (protocol of this paper; not …); cited from earlier work.

Series [5] has as its target T7, tiar-3 (Caenorhabditis elegans) (UniProt Q93194).
T7 sequence: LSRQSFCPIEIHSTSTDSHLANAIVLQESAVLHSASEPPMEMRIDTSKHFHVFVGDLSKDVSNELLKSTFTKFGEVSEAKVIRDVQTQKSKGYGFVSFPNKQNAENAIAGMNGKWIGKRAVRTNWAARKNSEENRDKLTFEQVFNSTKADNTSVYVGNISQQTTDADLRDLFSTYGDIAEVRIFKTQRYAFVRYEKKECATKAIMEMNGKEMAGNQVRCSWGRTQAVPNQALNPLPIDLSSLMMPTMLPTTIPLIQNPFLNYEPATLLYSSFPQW
The following applies: 20 nM protein, 1.5 uM RNA pool; 20 mM HEPES pH 7.8, 70 mM KCl, 10 mM NaCl, 10% glycerol, 2 mM DTT, 0.1 ug/uL BSA; 30 min, 4 C (protocol of this paper; not …); cited from earlier work.

The target in series [6] is T8, tia1 (Tetraodon nigroviridis) (UniProt H3D7H4).
T8 sequence: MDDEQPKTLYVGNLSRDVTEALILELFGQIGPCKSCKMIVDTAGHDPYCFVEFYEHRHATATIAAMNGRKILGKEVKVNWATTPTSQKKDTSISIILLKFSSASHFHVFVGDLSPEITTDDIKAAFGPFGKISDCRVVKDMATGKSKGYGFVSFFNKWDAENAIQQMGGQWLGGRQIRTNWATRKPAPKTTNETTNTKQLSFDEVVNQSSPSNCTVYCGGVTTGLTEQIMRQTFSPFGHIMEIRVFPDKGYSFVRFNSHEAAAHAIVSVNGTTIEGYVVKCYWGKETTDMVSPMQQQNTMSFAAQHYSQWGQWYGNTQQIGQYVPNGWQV
The note with it: 20 nM protein, 1.5 uM RNA pool; 20 mM HEPES pH 7.8, 70 mM KCl, 10 mM NaCl, 10% glycerol, 2 mM DTT, 0.1 ug/uL BSA; 30 min, 4 C.

In series [7] the target is T9, PUB1 (Saccharomyces cerevisiae) (UniProt P32588).
T9 sequence: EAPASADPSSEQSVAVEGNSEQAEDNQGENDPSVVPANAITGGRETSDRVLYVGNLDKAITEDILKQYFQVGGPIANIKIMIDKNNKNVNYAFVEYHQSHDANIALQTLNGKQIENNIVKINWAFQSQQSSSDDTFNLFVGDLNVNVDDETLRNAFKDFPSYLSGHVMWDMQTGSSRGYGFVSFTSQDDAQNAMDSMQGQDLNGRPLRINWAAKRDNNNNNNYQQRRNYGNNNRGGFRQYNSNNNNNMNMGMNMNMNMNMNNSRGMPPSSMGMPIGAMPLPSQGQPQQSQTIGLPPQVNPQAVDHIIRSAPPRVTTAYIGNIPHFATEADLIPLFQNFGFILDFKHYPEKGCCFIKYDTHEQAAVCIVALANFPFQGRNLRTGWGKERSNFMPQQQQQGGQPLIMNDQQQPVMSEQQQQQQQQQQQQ
The following applies: 20 nM protein, 1.5 uM RNA pool; 20 mM HEPES pH 7.8, 70 mM KCl, 10 mM NaCl, 10% glycerol, 2 mM DTT, 0.1 ug/uL BSA; 30 min, 4 C.

GAGUAG [RNAcompete motif RNCMPT00049]: the binding signal (z-score (mean of top ten 7-mers)) in the series with RBM28 (Homo sapiens) is 7.8. In turn, GAGUGUG [RNAcompete motif RNCMPT01677] yielded a binding signal (z-score (mean of top ten 7-mers)) in series [1] of 9.92. Turning to GUAGUU [RNAcompete motif RNCMPT00040], in [2], the binding signal (z-score (mean of top ten 7-mers)) was 12.5. For UAAUA [RNAcompete motif RNCMPT00039], in series [3], the binding signal (z-score (mean of top ten 7-mers)) is 18. Regarding UAGUUAG [RNAcompete motif RNCMPT00041], the binding signal (z-score (mean of top ten 7-mers)) in the series with MSI1 (Homo sapiens) was 9.05. In the case of UGUACAU [RNAcompete motif RNCMPT00046], the binding signal (z-score (mean of top ten 7-mers)) in series [4] is 28.5.

As for UGUGUG [RNAcompete motif RNCMPT00004], in the series with CELF4 (Homo sapiens), the binding signal (z-score (mean of top ten 7-mers)) is 7.26. Regarding UUUNUGU [RNAcompete motif RNCMPT00051], the binding signal (z-score (mean of top ten 7-mers)) in the series with Rbm38 (Mus musculus) is 17. For the substance UUUUUU [RNAcompete motif RNCMPT00005], in series [5], the binding signal (z-score (mean of top ten 7-mers)) was 11. In turn, UUUUUUG [RNAcompete motif RNCMPT01674] yielded a binding signal (z-score (mean of top ten 7-mers)) in series [6] of 6.08.

In [7], UUUUUUU [RNAcompete motif RNCMPT01685] gave a binding signal (z-score (mean of top ten 7-mers)) of 11.6.
